Patent publication CN114907478A (MABWELL SHANGHAI BIOSCIENCE CO LTD, dated 2022)
Residue numbers refer to the chain shown, from its start. Blank lines part the entries; values can stand above or below the binder they belong to.

Legend:
hLAG-3-mFc融合蛋白 [1] = biological target: T1, hLAG-3-mFc融合蛋白 (human, UniProt P18627 23-450); test: FACS competition: blocking of hLAG-3-mFc (2 ug/ml) binding to HLA on 293/rhHLA cells
T1 construct: range 1-450; no cleavage site is stated; also called hLAG-3-mFc重组蛋白; 人LAG-3-mFc重组蛋白; not shown: mouse Fc
T1 sequence (looked up): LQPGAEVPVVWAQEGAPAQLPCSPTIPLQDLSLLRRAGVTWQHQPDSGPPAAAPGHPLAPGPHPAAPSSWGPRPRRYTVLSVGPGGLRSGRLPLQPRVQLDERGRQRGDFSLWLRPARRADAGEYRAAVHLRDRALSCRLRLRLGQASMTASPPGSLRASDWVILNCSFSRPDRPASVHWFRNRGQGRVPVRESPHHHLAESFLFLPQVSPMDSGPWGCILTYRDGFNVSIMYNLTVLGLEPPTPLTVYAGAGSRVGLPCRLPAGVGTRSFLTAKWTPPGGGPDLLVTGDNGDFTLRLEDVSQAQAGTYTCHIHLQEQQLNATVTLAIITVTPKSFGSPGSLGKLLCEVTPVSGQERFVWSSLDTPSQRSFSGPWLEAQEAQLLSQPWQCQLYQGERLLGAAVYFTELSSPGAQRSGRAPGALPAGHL

hLAG-3-mFc融合蛋白 [2] = biological target: T1, hLAG-3-mFc融合蛋白; test: BLI (ForteBio Octet QKe), antibody captured on AHC probe, hLAG-3-mFc 60 nM in solution, 1:1 fit

B1: ch7F1嵌合抗体 (antibody, human IgG4, V domains shown)
VH: EVQLVESGPGLVAPSQSLSITCTVSGFSLTDYAVSWIRQPPGKGLEWLGVVWGDGSTNYHSALISRLIITRDNSKRQVFLKLNSLQTDDTATYYCAKGGGGMDYWGQGTSVTVSS
VL: DIVLSQSPAILSASPGEKVTVTCRASSSVSYMHWFQQKPGSSPKPWIYATSNLASGVPVRFSGSGSGTSYSLTISRVEAEDAATYYCQHYNTNPPTWTFGGGSKLEIK
IC50 (hLAG-3-mFc融合蛋白 [1]): 11.5 µg/mL
Kd (hLAG-3-mFc融合蛋白 [2]): 5.52 nM

B3: ch7C5嵌合抗体 (antibody, V domains shown)
VH: EVQLQQSGAELARPGASVKLSCKASGYTFTSYGISWVKQRTGQGLEWIGEIYPRSDNTYYNGKFKGKATLTADKSSSTAYMELRSLTSEDSAVFFCARRAFYYYGSNYYAMDYWGQGTSVTVSS
VL: DVLMTQTPLFLPVSLGDQASISCRSSQSIVHSNGDTYLEWYLRKPGQSPKLLIFKVSNRFSGVPDRFSGSGSGTDFTLKISRVEAEDLGVYYCFQGSHVPWTFGGGTKLEIK
IC50 (hLAG-3-mFc融合蛋白 [1]): 1.87 µg/mL
Kd (hLAG-3-mFc融合蛋白 [2]): 0.365 nM

B4: ch10B4嵌合抗体 (antibody, human IgG4, V domains shown)
VH: B3 VH with T28S, S31N, V37M, S55G, D56G, K74Q, F94Y, Y104F
VL: B3 VL with L3V, R43Q, F54Y, E110A
IC50 (hLAG-3-mFc融合蛋白 [1]): 2 µg/mL
Kd (hLAG-3-mFc融合蛋白 [2]): 0.0884 nM

B6: ch3A10嵌合抗体 (antibody, human IgG4, V domains shown)
VH: EVQLQQSGAELVRPGASVKLSCTASGFNIKDDYMHWMKQRPEQGLEWIGWIDPENGETEYASKFQGKATITADTYSNTVYLQFSSLTSEDTGVYYCTIFDYWGQGTSLTVSS
VL: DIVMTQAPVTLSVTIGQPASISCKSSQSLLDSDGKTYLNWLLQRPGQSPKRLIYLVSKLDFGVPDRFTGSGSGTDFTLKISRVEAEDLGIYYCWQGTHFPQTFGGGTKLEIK
IC50 (hLAG-3-mFc融合蛋白 [1]): 3.33 µg/mL
Kd (hLAG-3-mFc融合蛋白 [2]): 0.128 nM

More lines, in order of falling Kd (hLAG-3-mFc融合蛋白 [2]), values ahead:

IC50 (hLAG-3-mFc融合蛋白 [1]): 1.28 µg/mL
Kd (hLAG-3-mFc融合蛋白 [2]): 0.427 nM
B2: ch4C8嵌合抗体 (antibody, human IgG4, V domains shown)
VH: EVQLVESGGGLVKIGGSLKLSCAGSGFTFSNYAMSWVRQTPEKRLEWVATITYGTTYTFYSDNVKGRFTISRDNAKNNLSLQMSHLKSEDTAMYYCTRGEYGSSFAYWGQGTLVTVSA
VL: DIVMTQSQKFMSTSVGDRVSITCKASQNVRTAVAWYQQKPGQSPKALIYLASNRHTGVPDRFTGSGSETDFTLTINNVQSEDLADYFCLQHWNYPLTFGGGTKLEIK

IC50 (hLAG-3-mFc融合蛋白 [1]): 1.21 µg/mL
Kd (hLAG-3-mFc融合蛋白 [2]): 0.117 nM
B5: ch7F10嵌合抗体 (antibody, human IgG4, V domains shown)
VH: EVKLMESGAELVKPGASVKLSCKVSGVNIKDDYMHWVKQRTEQGLEWIGRIDPEDVETKYDPKFQGKATITSDTSSNTGYLQLSSLTSEDTAVYYCARSFYSNYVNYFDQWGQGTTLTVSS
VL: DIVMTQAPKSMSMSVGERVTLSCKASENVGTYVSWFQQKPEQSPKLLIYGASNRYTGVPDRFTGSGSATDFTLTISSVQAEDLADYHCGQSYSYPYTFGGGTKLEIK
